Laboratory results from the RNAGym collection of RNA variant scans (doi:10.7554/elife.80360).

B1: HDV Ribozyme (parent)
chain: GGCCGGCAUGGUCCCAGCCUCCUCGCUGGCGCCGGCUGGGCAACAUUCCGAGGGGACCGUCCCCUCGGUAAUGGCGAAUGGGACCCA

Variants of: B1
Test: self-cleavage, relative activity (ratio to wild type); higher = more cleavage; co-transcriptional

Row | Variant | self-cleavage
1 | GGCCGCCAUGGUCCCAGCCUCCUCGCUGGCGCCGGCUGGGCCACAUUCCGAGGGGACCGUCCCCUCGGUAAUGGCGAAUGGGACCCA | 0.138
2 | GGCCGCCAUGGUCCCAGCCUCCUCGCUGGCGCCGGCUGGGCUACAUUCCGAGGGGACCGUCCCCUCGGUAAUGGCGAAUGGGACCCA | 0.158
3 | GGCCGACAUGGUCCCAGCCUCCUCGCUGGCGCCGGCUGGGCAACAUUCCGAGGGGACCCUCCCCUCGGUAAUGGCGAAUGGGACCCA | 0.587
4 | GGCCGCCAUGGUCCCAGCCUCCUCGCUGGCGCUGGCUGGGCAACAUUCCGAGGGGACCGUCCCCUCGGUAAUGGCGAAUGGGACCCA | 0.155
5 | GGCCGACAUGGUCCCAGCCUCCUCGCUGGCGCCGGCUGGUCAACAUUCCGAGGGGACCGUCCCCUCGGUAAUGGCGAAUGGGACCCA | 0.911
6 | GGCCGCCAUGGUCCCAGCCUCCUCGCUGGCGCCGGCUGGGCAACAUUCGGAGGGGACCGUCCCCUCGGUAAUGGCGAAUGGGACCCA | 0.166
7 | GGCCGCCAUGGUCCCAGCCUCCUCGCUGGCGCCGGCUGGGCAACAUUCCGAGGGGACCGUCCCCUCGGUAAUGGCGCAUGGGACCCA | 0.277
8 | GGCCGCCAUGGUCCCAGCCUCCUCGCUGGCACCGGCUGGGCAACAUUCCGAGGGGACCGUCCCCUCGGUAAUGGCGAAUGGGACCCA | 0.277
9 | GGCCGCCAUGGUCCCAGCCUCCUCGCUGGCCCCGGCUGGGCAACAUUCCGAGGGGACCGUCCCCUCGGUAAUGGCGAAUGGGACCCA | 0.399
10 | GGCCGCCGUGGUCCCAGCCUCCUCGCUGGCGCCGGCUGGGCAACAUUCCGAGGGGACCGUCCCCUCGGUAAUGGCGAAUGGGACCCA | 0.332
11 | GGCCGCCCUGGUCCCAGCCUCCUCGCUGGCGCCGGCUGGGCAACAUUCCGAGGGGACCGUCCCCUCGGUAAUGGCGAAUGGGACCCA | 0
12 | GGCCGCCAUGGUCCCAGCCUCCUCGCUGGCGCCGGCUAGGCAACAUUCCGAGGGGACCGUCCCCUCGGUAAUGGCGAAUGGGACCCA | 0.0396
13 | GGCCGACAUGGUCCCAGCCUCCUCGCUGGCGCCAGCUGGGCAACAUUCCGAGGGGACCGUCCCCUCGGUAAUGGCGAAUGGGACCCA | 0.0287
14 | GGCCGCCAUGGUCCCAGCCUCCUCGCUGGCGCCGGCUGGGCAGCAUUCCGAGGGGACCGUCCCCUCGGUAAUGGCGAAUGGGACCCA | 0
15 | GGCCGCCAUGGUCCCAGCCUCCUCGCUGGCGCCGGCUGGGCAACAUUCCGAGGGGACCGUCCUCUCGGUAAUGGCGAAUGGGACCCA | 0.348
16 | GGCCGACAUGGUCCCAGCCUCCUCGCUGGCGCCGGCAGGGCAACAUUCCGAGGGGACCGUCCCCUCGGUAAUGGCGAAUGGGACCCA | 0.214
17 | GGCCGACAUGGGCCCAGCCUCCUCGCUGGCGCCGGCUGGGCAACAUUCCGAGGGGACCGUCCCCUCGGUAAUGGCGAAUGGGACCCA | 0.415
18 | GGCCGACAUGGACCCAGCCUCCUCGCUGGCGCCGGCUGGGCAACAUUCCGAGGGGACCGUCCCCUCGGUAAUGGCGAAUGGGACCCA | 0.253
19 | GGCCGACAUGGUCCCAGCCUCCUCGCUGGCGCCGGCUGGGCAACAUUCCGAGGUGACCGUCCCCUCGGUAAUGGCGAAUGGGACCCA | 0.819
20 | GGCCGACAUGGUCCCAGCCUCCUCGCUGGCGCCGGCUGGGCAACAUUCCGAGGAGACCGUCCCCUCGGUAAUGGCGAAUGGGACCCA | 0.471
21 | GGCCGCCAUGGUCCCAGCCUCCUCGCUGGCGCCGGCUGGGCAACAUUCCGAGGGGACCGUCACCUCGGUAAUGGCGAAUGGGACCCA | 0.161
22 | GGCCGCCAUGGUCCCAGCCUCCUAGCUGGCGCCGGCUGGGCAACAUUCCGAGGGGACCGUCCCCUCGGUAAUGGCGAAUGGGACCCA | 0.138

Row | Variant | self-cleavage
23 | GGCCGCCAUGGUCCCAGCCUCCUCGCUGGCGCCGGCUGGGCAAAAUUCCGAGGGGACCGUCCCCUCGGUAAUGGCGAAUGGGACCCA | 0.208
24 | GGCCGACAUGGUCCCAGCCUCCUCGCUGGCGCCGGCUGGGCAACAUUCCGAGCGGACCGUCCCCUCGGUAAUGGCGAAUGGGACCCA | 0.928
25 | GGCCGACAUGGUCCCAGCCUCCUCGCUGGCGCCGGCUGGGCAACAUUCCGAGGGGACCGUCCCCCCGGUAAUGGCGAAUGGGACCCA | 0.554
26 | GGCCGCCAUGGUCCGAGCCUCCUCGCUGGCGCCGGCUGGGCAACAUUCCGAGGGGACCGUCCCCUCGGUAAUGGCGAAUGGGACCCA | 0
27 | GGCCGCCAUGGUCCCAGCCUCCUCGCUGGCGCCGGCUGGGCAACAUUCCGAGGGGACCGUACCCUCGGUAAUGGCGAAUGGGACCCA | 0.161
28 | GGCCGCCAUGGUCCCAGCCUCCUCGCUGGCGCCGGCUGGGCAACAUUCCGAGGGGACCGUUCCCUCGGUAAUGGCGAAUGGGACCCA | 0.285
29 | GGCCGCCAUGGUCGCAGCCUCCUCGCUGGCGCCGGCUGGGCAACAUUCCGAGGGGACCGUCCCCUCGGUAAUGGCGAAUGGGACCCA | 0.111
30 | GGCCGCCAUGGUCCCAGCCUCCUCGCUGGCGCCGGCUGGGCAACCUUCCGAGGGGACCGUCCCCUCGGUAAUGGCGAAUGGGACCCA | 0.185
31 | GGCCGCCAUGGUCCCAGCCUCCUCGCUGGCGCCGGCUGGGCAACAUUCCGAGGGGACCGUCCCCUCGGUAAUGGCGAAUGGGACCGA | 0.131
32 | GGCCGCAAUGGUCCCAGCCUCCUCGCUGGCGCCGGCUGGGCAACAUUCCGAGGGGACCGUCCCCUCGGUAAUGGCGAAUGGGACCCA | 0.772
33 | GGCCGCCAUGGUCCCAGCCUCCUCGCUGGCGCCGGCUGGGCAACAUUCCGACGGGACCGUCCCCUCGGUAAUGGCGAAUGGGACCCA | 0.237
34 | GGCCGCCAUGGUCCCAGCCUGCUCGCUGGCGCCGGCUGGGCAACAUUCCGAGGGGACCGUCCCCUCGGUAAUGGCGAAUGGGACCCA | 0.0875
35 | GGCCGACAUGGUCCCAGCCUCCUCGCUGGCGCCGGCUGGGCAACAUUCCCAGGGGACCGUCCCCUCGGUAAUGGCGAAUGGGACCCA | 0.767
36 | GGCCGACAUGGUCCCAGCCUCCUCGCUGGCGCCGGCUGGGCAACAUUCCGAGGGGACCGUCCCCUCUGUAAUGGCGAAUGGGACCCA | 0.692
37 | GGCCGACAUGGUCCCAGCCUCCUCGCUGGCGCCGGCUGGGCAACAUUCCGACGGGACCGUCCCCUCGGUAAUGGCGAAUGGGACCCA | 0.831
38 | GGCCGCCAUGGUCCCAGCCUCCUCGCUGGCGCCGGCUGGGCAACAUUCCGAGGGGACCGUCCCCUCGGUAAUGGCGAUUGGGACCCA | 0
39 | GGCCGCCAUGGUCCCAGCCUCCUCGCUGGCGCCGACUGGGCAACAUUCCGAGGGGACCGUCCCCUCGGUAAUGGCGAAUGGGACCCA | 0.0755
40 | GGCCGCCAUGGUCCCAUCCUCCUCGCUGGCGCCGGCUGGGCAACAUUCCGAGGGGACCGUCCCCUCGGUAAUGGCGAAUGGGACCCA | 0.237
41 | GGCCGACAUGGUCCCAGCCUCCUCGCUGGCGCCGGCUGGGCAACAUUCCGAGGGGACCGUCCCCUCGGUAAUGGCGAAUGGCACCCA | 0
42 | GGCCGACAUGGUCCCAGCCUCCUCGCUGGCGCCGCCUGGGCAACAUUCCGAGGGGACCGUCCCCUCGGUAAUGGCGAAUGGGACCCA | 0.119
43 | GGCCGACAUGGUCCCAGCCUCCUCGCUGGCGCCGGCUGGGCAACAUUCCGAGGGGACCGUCCCCUCGGUAAUGGCUAAUGGGACCCA | 0.881
44 | GGCCGCCAUGGUCCCAGCCUCCUCGCUGGCGCCGGCUGGGCAACAUUCCGAGGGGACUGUCCCCUCGGUAAUGGCGAAUGGGACCCA | 0.394

Row | Variant | self-cleavage
45 | GGCCGCCAUGGUCCCAGCCUCCUCGCUGGCGCCGGCUGGGCAACAUUCCGAGGGGACAGUCCCCUCGGUAAUGGCGAAUGGGACCCA | 0.308
46 | GGCCGCCAUGGUCCCAGCCUCCUCGCUGGCGCCGGCUGGGCAACAUUCCGAGGGGACCGUCCCCUCGGUUAUGGCGAAUGGGACCCA | 0.185
47 | GGCCGCCAUGGUCCCAGCCUCCUCGCUGGCGCCGGCUGGGCAACAUUCCGAGGGGACCGUCCCCUCGGUCAUGGCGAAUGGGACCCA | 0.133
48 | GGCCGCCAUGGUCCCAGCCUCGUCGCUGGCGCCGGCUGGGCAACAUUCCGAGGGGACCGUCCCCUCGGUAAUGGCGAAUGGGACCCA | 0.145
49 | GGCCGACAUGGUCCCAGCCUCCUCGCUGGCGCCGGCUGGGCAACAUUCCGAGGGUACCGUCCCCUCGGUAAUGGCGAAUGGGACCCA | 0.831
50 | GGCCGACAUGGUCCCAGCCUCCUCGCUGGCGCCGGCUGGGCAACAUUCCGAGGGAACCGUCCCCUCGGUAAUGGCGAAUGGGACCCA | 0.712
51 | GGCCGACAUGGUCCCAGCCUCCUCGCUGGCGCCGGCUGGGCAACAUUCCGAGGGGACCGUCCCCUCGGUAACGGCGAAUGGGACCCA | 0.219
52 | GGCCGACAUGGUCCCAGCCUCCUCGCUGGCGCCGGCUGGGCAACAUCCCGAGGGGACCGUCCCCUCGGUAAUGGCGAAUGGGACCCA | 0.525
53 | GGCCGACAUGGUCCCAGCCUCCUCGCUGGCGCCGGCUGGGCAACAUGCCGAGGGGACCGUCCCCUCGGUAAUGGCGAAUGGGACCCA | 1.01
54 | GGCCGCCAUGGUCCCAGCCUCCUCGCUGGCGCCGGCUGGGCAACAUUCCGAGGGGACCGUCCCCUCGGUAAUGGCGAAUGGGACACA | 0.0791
55 | GGCCGCCAUGGUCCCAGCCUCCUCGCUGGCGCCGGCUGGGCAACAUUCCGAGGGGACCGUCCCCUCGGUAAUGGCGAAUGGGACGCA | 0.375
56 | GGCCGCCAUGGUCCCAGCCUCCUCGCUGGCGCCGGCUGGGCAACAUUCCGAGGGGACCGUCCCCUCGGUACUGGCGAAUGGGACCCA | 0.0791
57 | GGCCGACAUGGUCCCAGCCUCCUCGCGGGCGCCGGCUGGGCAACAUUCCGAGGGGACCGUCCCCUCGGUAAUGGCGAAUGGGACCCA | 0.643
58 | GGCCGACAUGGUCCCAGCCUCCUCGCAGGCGCCGGCUGGGCAACAUUCCGAGGGGACCGUCCCCUCGGUAAUGGCGAAUGGGACCCA | 0.514
59 | GGCCGCCAUGGUCCCAGCCUCCUCGCUGUCGCCGGCUGGGCAACAUUCCGAGGGGACCGUCCCCUCGGUAAUGGCGAAUGGGACCCA | 0.111
60 | GGCCGCCAUGGUCCCAGCCUCCUCGCUGGCGCCGGCUGGGCAACAUUCCGAGGGGAUCGUCCCCUCGGUAAUGGCGAAUGGGACCCA | 0.269
61 | GGCCGCCAUGGUCCCAGCCUCCUCGCUGGCGCCGGCUGGGCAACAUUCCGAGGGGAGCGUCCCCUCGGUAAUGGCGAAUGGGACCCA | 0.396
62 | GGCCGACAUGGUCCCAGCCUCCUCGCUGGCGCCGGCUGGGCAACAUUCCGAGGGGACCGUCCCCUCGGCAAUGGCGAAUGGGACCCA | 0.631
63 | GGCCGACAUGGUCCCAGCCUCCUCGCUGGCGCCGGCUGGGCAACACUCCGAGGGGACCGUCCCCUCGGUAAUGGCGAAUGGGACCCA | 0.508
64 | GGCCGACAAGGUCCCAGCCUCCUCGCUGGCGCCGGCUGGGCAACAUUCCGAGGGGACCGUCCCCUCGGUAAUGGCGAAUGGGACCCA | 0.942
